This note sets out measurements from patent US12281147.

Assay [1] concerns the target human interleukin 21 receptor (IL-21R) (human) (UniProt Q9HBE5). Kind of assay: AlphaSeq yeast mating, pH 6 media.
For assay [2] the target is unchanged. Kind of assay: AlphaSeq yeast mating, pH 7 media.
For assay [3] the target is unchanged. The assay can be described thus: AlphaSeq yeast mating, unbuffered media.
The target is the same in assay [4]. The assay can be described thus: AlphaSeq yeast mating, pH 5 media.
The target in assay [5] is wild-type human IL-21R (human) (UniProt Q9HBE5). The assay can be described thus: AlphaSeq yeast mating assay, pH 7 media.
Assay [6] shares this target. The assay can be described thus: AlphaSeq yeast mating assay, unbuffered media.
Assay [7] has as its target recombinant human IL-21R His tag (Acro Biosystems) (human) (UniProt Q9HBE5). Kind of assay: BLI. In general terms: Biolayer interferometry detects binding as a change in optical thickness at a sensor tip.
Assay [8] concerns the target wild-type human IL-21R (human) (UniProt Q9HBE5). Kind of assay: AlphaSeq yeast mating assay, pH 5 media.

One may read the Kd as the concentration at which binding is half-saturated. Take “IL-21_R34W (from UniProt Q9HBE4 32-152) (ligand)”: the Kd came to 96 nM in assay [1], 190 nM in assay [2] and 20000 nM in assay [3].

For “IL-21_I45A (from UniProt Q9HBE4 32-152) (ligand)”, the figures for the Kd in assay [1] and in assay [3] were 25 nM and 8400 nM, respectively.

For the substance “IL-21_I95T (from UniProt Q9HBE4 32-152) (ligand)”, the Kd in assay [4] came to 9800 nM; in assay [1] it was 550 nM; in assay [2] it was 190 nM; in assay [3] it was 34000 nM.

Turning to “IL-21_L120K (from UniProt Q9HBE4 32-152) (ligand)”, the Kd in assay [4] was 47 nM; in assay [1], 25 nM; in assay [2], 46 nM.

“IL-21_P62T (from UniProt Q9HBE4 32-152) (ligand)”: the Kd in assay [5] amounted to 46 nM; in assay [6], 4500 nM.

“IL-21_human_R38K Fc fusion protein (from UniProt Q9HBE4 30-162)”: the Kd in assay [7] was found to be 313 nM.

On to “IL-21_S86I (from UniProt Q9HBE4 32-152) (ligand)”, for which the figures for the Kd in assay [8] and in assay [5] were 110 nM and 52 nM, respectively.

For the substance “IL-21_human_F76M Fc fusion protein (from UniProt Q9HBE4 30-162)”, the Kd in assay [7] came out at 11.8 nM.

For “IL-21_E72S (from UniProt Q9HBE4 32-152) (ligand)”, the figures for the Kd in assay [4], in assay [1] and in assay [2] were 530 nM, 140 nM and 340 nM, respectively.

As to “IL-21_human_D44P Fc fusion protein (from UniProt Q9HBE4 30-162)”, the Kd in assay [7] was found to be 1360 nM.

As for “IL-21_S99H (from UniProt Q9HBE4 32-152) (ligand)”, the Kd was 25 nM in assay [2] and 60000 nM in assay [3].

As for “IL-21_D33S (from UniProt Q9HBE4 32-152) (ligand)”, the Kd was found to be 82 nM in assay [4] and 27 nM in assay [2].

In the case of “IL-21_H118R (from UniProt Q9HBE4 32-152) (ligand)”, the dissociation constant Kd in assay [4] worked out at 20000 nM; in assay [1], 950 nM; in assay [2], 260 nM; in assay [3], 11000 nM.

Regarding “IL-21_I37Q (from UniProt Q9HBE4 32-152) (ligand)”, the values for the Kd in assay [4], in assay [1] and in assay [2] were 250 nM, 35 nM and 140 nM, respectively.

“IL-21_D33A (from UniProt Q9HBE4 32-152) (ligand)” displayed a Kd in assay [2] of 83 nM.

Consider “IL-21_W73Q (from UniProt Q9HBE4 32-152) (ligand)”, for which the Kd in assay [1] was determined as 88 nM; in assay [2], 120 nM; in assay [3], 15000 nM.

For “IL-21_S74N (from UniProt Q9HBE4 32-152) (ligand)”, the results for the Kd in assay [4], in assay [2] and in assay [3] were 48000 nM, 410 nM and 32000 nM, respectively.

As for “IL-21_human_I45G Fc fusion protein (from UniProt Q9HBE4 30-162)”, the Kd in assay [7] was 12 nM.

For “IL-21_T89L (from UniProt Q9HBE4 32-152) (ligand)”, the Kd was 1000 nM in assay [4], 110 nM in assay [1], 140 nM in assay [2] and 16000 nM in assay [3].

For the substance “IL-21_S77K (from UniProt Q9HBE4 32-152) (ligand)”, the Kd in assay [4] is 190 nM; in assay [2] it was 170 nM; in assay [3], 14000 nM.

With “IL-21_Q145H (from UniProt Q9HBE4 32-152) (ligand)”, the Kd in assay [4] is 1000 nM; in assay [1] it was 54 nM; in assay [3], 32000 nM.

As to “IL-21_D44N (from UniProt Q9HBE4 32-152) (ligand)”, the Kd in assay [4] came out at 1200 nM; in assay [1], 92 nM; in assay [3], 60000 nM.

Consider “IL-21_R34G (from UniProt Q9HBE4 32-152) (ligand)”, for which the results for the dissociation constant Kd in assay [4], in assay [1] and in assay [3] were 6400 nM, 150 nM and 9900 nM, respectively.

As for “IL-21_V98H (from UniProt Q9HBE4 32-152) (ligand)”, the Kd in assay [4] is 170 nM; in assay [1], 26 nM; in assay [3], 8800 nM.

Turning to “IL-21_S109K (from UniProt Q9HBE4 32-152) (ligand)”, the Kd was determined as 43 nM in assay [4], 26 nM in assay [1] and 40000 nM in assay [3].

As for “IL-21_I96V (from UniProt Q9HBE4 32-152) (ligand)”, the Kd in assay [8] was determined as 190 nM; in assay [5], 62 nM; in assay [6] it was 3000 nM.

Consider “IL-21_D33N (from UniProt Q9HBE4 32-152) (ligand)”, for which the Kd turned out to be 120 nM in assay [4], 27 nM in assay [1], 45 nM in assay [2] and 14000 nM in assay [3].

“IL-21_human_F79P Fc fusion protein (from UniProt Q9HBE4 30-162)”: the Kd in assay [7] was 11.1 nM.

In the case of “IL-21_W73A (from UniProt Q9HBE4 32-152) (ligand)”, the Kd in assay [4] turned out to be 3500 nM; in assay [1], 360 nM; in assay [2], 170 nM; in assay [3], 26000 nM.

On to “IL-21_N51P (from UniProt Q9HBE4 32-152) (ligand)”, for which the dissociation constant (Kd) was 160 nM in assay [4], 24 nM in assay [1], 47 nM in assay [2] and 8500 nM in assay [3].

Regarding “IL-21_human_V53T Fc fusion protein (from UniProt Q9HBE4 30-162)”, the dissociation constant Kd in assay [7] is 7.86 nM.

Turning to “IL-21_R34E (from UniProt Q9HBE4 32-152) (ligand)”, in assay [5], the Kd turned out to be 210 nM.

In the case of “IL-21_L61I (from UniProt Q9HBE4 32-152) (ligand)”, the Kd in assay [4] stood at 370 nM; in assay [1] it was 37 nM; in assay [2] it was 83 nM.

Turning to “IL-21_R34H (from UniProt Q9HBE4 32-152) (ligand)”, the Kd in assay [2] was 200 nM; in assay [3] it was 10000 nM.

Consider “IL-21_F60I (from UniProt Q9HBE4 32-152) (ligand)”, for which the Kd in assay [8] was 340 nM; in assay [5], 190 nM; in assay [6] it was 7700 nM.

For “IL-21_Y52Q (from UniProt Q9HBE4 32-152) (ligand)”, the Kd was determined as 55000 nM in assay [4], 390 nM in assay [1], 89 nM in assay [2] and 63000 nM in assay [3].

Consider “IL-21_W73L (from UniProt Q9HBE4 32-152) (ligand)”, for which the Kd in assay [4] was 5200 nM; in assay [1] it was 200 nM; in assay [3], 33000 nM.

Take “IL-21_R34K (from UniProt Q9HBE4 32-152) (ligand)”: the dissociation constant Kd amounted to 390 nM in assay [4], 47 nM in assay [1] and 14000 nM in assay [3].

Consider “IL-21_V57R (from UniProt Q9HBE4 32-152) (ligand)”, for which the Kd in assay [4] was determined as 50 nM; in assay [1], 16 nM; in assay [2], 50 nM; in assay [3], 14000 nM.

Regarding “IL-21_Q150R (from UniProt Q9HBE4 32-152) (ligand)”, the results for the Kd in assay [1], in assay [2] and in assay [3] were 50 nM, 94 nM and 14000 nM, respectively.

Take “IL-21_human_P108G Fc fusion protein (from UniProt Q9HBE4 30-162)”: the Kd in assay [7] was 29 nM.

For “IL-21_N88K (from UniProt Q9HBE4 32-152) (ligand)”, the Kd stood at 170 nM in assay [4], 43 nM in assay [1], 140 nM in assay [2] and 21000 nM in assay [3].
